Eight molecules from patent US20260184775A1 (Chugai, published 2026) can be followed below.

One assay has as its target T1, mouse mature TGF-beta 1 (mouse, UniProt P04202 279-390).
T1 construct: mature; also the active TGF-beta 1 released in the mouse PBMC co-culture assay
In words: ELISA on plate-coated mouse mature TGF-beta 1, detection with anti-human IgG-HRP. The procedure: 384-well plate was coated with mouse mature TGF-beta 1 for overnight at 4 degrees C. After four times washing with TBS-T, the plate was blocked with blocking buffer (1×TBS/tween20+0.5% BSA+1× Block ace) for 2 hours at room temperature. After four times washing with TBS-T, antibody solution was added into the plate and incubated for 2 hours at room temperature. After four times washing with TBS-T, a diluted secondary antibody (goat anti-human IgG-HRP Santa Cruz Cat.sc-2453) was add into the plate and incubated for 1 hour at room temperature. After four times washing with TBS-T, TMB solution was added into the plate and incubated for 15 min at room temperature, then 1N sulfuric acid was added to stop the reaction. The absorbance was measured at 450 nm/570 nm.
In general terms: In an ELISA, binding on a coated surface is turned into a signal by an enzyme label.

Assay [1] concerns the target T2, recombinant mouse latent TGF-beta 1 (Flag-tagged mouse latent TGF-beta 1) (mouse, UniProt P04202 34-390).
T2 construct: also called mouse recombinant latent TGF-beta 1
The experiment in a line: SPR, Biacore 8K, 37 C, pH 7.4; antibody captured by anti-human Fc, latent TGF-beta 1 as analyte; 1:1 model. On the technique in general: SPR reads the build-up and loss of mass on a sensor chip optically.

Assay [2] addresses T3, recombinant human latent TGF-beta 1 (Flag-tagged human latent TGF-beta 1) (human, UniProt P01137 34-390).
T3 construct: Latent form: LAP plus mature TGF-beta 1; also called human recombinant latent TGF-beta 1; SLC
In words: SPR, Biacore T200, 37 C, pH 7.4; antibody captured by anti-human Fc; 1:1 model; footnote: slow off rate <1E-05, KD cannot be uniquely determined. The method, then:
(§1) The affinities of anti-latent TGF-beta 1 antibodies binding to human latent TGF-beta 1 at pH 7.4 were determined at 37 degrees C. using Biacore T200 instrument (GE Healthcare). Anti-human Fc (GE Healthcare) was immobilized onto all flow cells of a CM4 sensor chip using an amine coupling kit (GE Healthcare). All antibodies and analytes were prepared in ACES pH 7.4 containing 20 mM ACES, 150 mM NaCl, 1.2 mM CaCl₂, 0.05% Tween 20, and 0.005% NaN₃. Each antibody was captured onto the sensor surface by anti-human Fc. Antibody capture levels were aimed at 300 resonance unit (RU). Recombinant human latent TGF-beta 1 was injected at a concentration of 12.5 to 200 nM prepared by two-fold serial dilution, followed by dissociation. Sensor surface was regenerated each cycle with 3M MgCl₂.

Assay [3] deals with T3, recombinant human latent TGF-beta 1 …. In words: SPR, Biacore T200, 37 C, pH 7.4; antibody captured by anti-human Fc, latent TGF-beta 1 at 12.5 to 200 nM as analyte; 1:1 model. The method, then:
as §1

For assay [4] the target is unchanged. The experiment in a line: SPR, Biacore 8K, 37 C, pH 7.4; antibody captured by anti-human Fc, latent TGF-beta 1 as analyte; 1:1 model.
In assay [5] the target is T2, recombinant mouse latent TGF-beta 1 …. In words: SPR, Biacore T200, 37 C, pH 7.4; antibody captured by anti-human Fc, latent TGF-beta 1 at 12.5 to 200 nM as analyte; 1:1 model. The method, then:
(§2) The affinities of anti-latent TGF-beta 1 antibodies binding to human or mouse latent TGF-beta 1 at pH 7.4 were determined at 37 degrees C. using Biacore T200 instrument (GE Healthcare). Anti-human Fc (GE Healthcare) was immobilized onto all flow cells of a CM4 sensor chip using an amine coupling kit (GE Healthcare). All antibodies and analytes were prepared in ACES pH 7.4 containing 20 mM ACES, 150 mM NaCl, 1.2 mM CaCl₂), 0.05% Tween 20, 0.005% NaN3. Each antibody was captured onto the sensor surface by anti-human Fc. Antibody capture levels were aimed at 300 resonance unit (RU). For TBA865 and TBA873, recombinant human or mouse latent TGF-beta 1 was injected at 12.5 to 200 nM prepared by two-fold serial dilution, followed by dissociation. For TBS139 and TBS182, recombinant human or mouse latent TGF-beta 1 was injected at 3.125 to 50 nM prepared by two-fold serial dilution, followed by dissociation. The sensor surface was regenerated each cycle with 3M MgCl2.

Assay [6] addresses T3, recombinant human latent TGF-beta 1 …. Described as above. The procedure: as §2
The source holds these as a separate data set.

Assay [7] addresses T4, human cell surface latent TGF-beta 1 (human, UniProt P01137 30-390).
T4 construct: also called cell surface human latent TGF-beta 1
The experiment in a line: FACS on FreeStyle 293-F cells, PE-labelled secondary antibody, MFI. The method, then: (§3) Anti-latent TGF-beta 1 antibodies were incubated with each cell line for 30 minutes at 4 degrees C. and washed with FACS buffer (2% FBS, 2 mM EDTA in PBS). Anti-KLH antibody (IC17) was used for a negative control antibody. Goat F(ab′)2 anti-Human IgG, Mouse ads-PE (Southern Biotech, Cat. 2043-09) or Goat F(ab′)2 anti-Mouse IgG(H+L), Human Ads-PE (Southern Biotech, Cat. 1032-09) was then added and incubated for 30 minutes at 4 degrees C. and washed with FACS buffer. Data acquisition was performed on an FACS Verse (Becton Dickinson), followed by analysis using FlowJo software (Tree Star) and GraphPad Prism software (GraphPad).

The target of assay [8] is T5, mouse cell surface latent TGF-beta 1 (mouse, UniProt P04202 30-390).
T5 construct: Endogenous latent TGF-beta 1 (forming LLC) on Ba/F3 cells, and the latent TGF-beta 1 of mouse PBMC in the co-culture assay; also called cell surface mouse latent TGF-beta 1; latent TGF-beta 1 on Ba/F3 cells
T5 sequence (P04202 30-390): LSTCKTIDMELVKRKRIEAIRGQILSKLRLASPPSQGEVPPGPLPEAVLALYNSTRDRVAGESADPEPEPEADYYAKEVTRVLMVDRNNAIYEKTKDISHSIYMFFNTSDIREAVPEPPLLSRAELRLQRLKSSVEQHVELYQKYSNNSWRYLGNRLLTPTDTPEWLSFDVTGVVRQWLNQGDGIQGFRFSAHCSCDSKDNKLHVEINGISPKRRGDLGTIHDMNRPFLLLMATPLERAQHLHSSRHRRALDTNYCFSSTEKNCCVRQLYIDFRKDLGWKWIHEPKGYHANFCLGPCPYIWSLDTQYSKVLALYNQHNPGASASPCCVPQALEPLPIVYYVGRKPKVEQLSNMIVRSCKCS
In words: FACS on Ba/F3 cells, PE-labelled secondary antibody, MFI. The method, then:
as §3

T1 sequence (P04202 279-390 limits assumed): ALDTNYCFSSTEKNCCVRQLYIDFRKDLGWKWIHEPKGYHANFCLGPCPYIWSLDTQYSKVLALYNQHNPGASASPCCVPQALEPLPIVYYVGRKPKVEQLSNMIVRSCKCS
T2 sequence (P04202 other isoform, or with tags, fused parts or gaps limits assumed): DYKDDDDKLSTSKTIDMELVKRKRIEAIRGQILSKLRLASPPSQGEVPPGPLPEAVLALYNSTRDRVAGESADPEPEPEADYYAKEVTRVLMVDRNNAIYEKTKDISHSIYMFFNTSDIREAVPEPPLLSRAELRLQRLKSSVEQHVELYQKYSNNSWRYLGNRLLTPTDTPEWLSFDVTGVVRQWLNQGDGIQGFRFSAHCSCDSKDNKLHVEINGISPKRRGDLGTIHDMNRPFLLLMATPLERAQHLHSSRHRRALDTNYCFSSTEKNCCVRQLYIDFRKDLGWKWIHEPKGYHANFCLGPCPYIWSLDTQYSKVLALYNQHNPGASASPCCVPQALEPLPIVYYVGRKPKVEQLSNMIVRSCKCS
T3 sequence (P01137 other isoform, or with tags, fused parts or gaps limits assumed): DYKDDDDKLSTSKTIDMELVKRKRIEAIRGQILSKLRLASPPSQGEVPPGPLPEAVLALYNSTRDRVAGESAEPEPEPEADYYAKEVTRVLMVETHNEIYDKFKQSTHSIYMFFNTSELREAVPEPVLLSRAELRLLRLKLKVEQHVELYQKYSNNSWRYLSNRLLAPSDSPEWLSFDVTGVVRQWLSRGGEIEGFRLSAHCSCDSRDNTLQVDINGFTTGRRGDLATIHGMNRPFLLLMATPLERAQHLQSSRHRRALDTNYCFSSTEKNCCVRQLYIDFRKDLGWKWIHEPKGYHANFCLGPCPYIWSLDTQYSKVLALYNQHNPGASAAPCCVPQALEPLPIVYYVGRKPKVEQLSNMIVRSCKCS
T4 sequence (P01137 30-390): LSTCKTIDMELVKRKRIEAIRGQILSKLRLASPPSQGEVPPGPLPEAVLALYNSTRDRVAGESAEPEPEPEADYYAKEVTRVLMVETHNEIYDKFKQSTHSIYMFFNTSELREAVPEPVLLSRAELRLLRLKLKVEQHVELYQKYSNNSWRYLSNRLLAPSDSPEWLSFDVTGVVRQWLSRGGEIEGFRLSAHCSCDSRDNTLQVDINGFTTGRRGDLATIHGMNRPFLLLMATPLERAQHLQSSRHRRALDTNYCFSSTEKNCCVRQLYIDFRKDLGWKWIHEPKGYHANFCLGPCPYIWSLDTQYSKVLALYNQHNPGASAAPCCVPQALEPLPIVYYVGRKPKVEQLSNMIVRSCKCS

B1: TBA0946 (antibody, human IgG1, kappa, V domains shown)
VH: QSLEESGGRLVTPGTPLTLTCTTSGFSLNNYYMNWVRQAPGKGLEWIGLTDNDGTTYYANWAKGRFTVSKTSTTVDLKMTSPTTEDTATYFCVRDAGYSRNLWGPGTLVTVSS
VL: AYDMTQTPASVEVAVGGTVTIKCQASQSISSSLAWYQQKPGQPPKQLIYRASTLASGVSSRFKGSGSGTQFTLTISGVECADAATYYCQQTYSWSGLDNVFGGGTKVEIKR
notes: also called TBA0946bb-F1332m; TBA946
As usually defined, the Kd is a measure of binding affinity in units of concentration. As usually defined, the koff is a measure of how fast the partners let go of each other. As a reminder, the kon is a measure of how fast the partners come together. On to B1, for which the binding result with mouse mature TGF-beta 1 is “no binding (tested: 10 µg/mL)”. Also, in assay [1], the Kd turned out to be 0.0793 nM, the koff was found to be 7.66e-05 s⁻¹ and the kon came out at 966000 M⁻¹ s⁻¹.

B2: TBA1314 (antibody, human IgG1, kappa, V domains shown)
VH: QSVEESGGRLVTPGTPLTLTCTVSGFSLSNYAMTWVRQAPGKGLEWIGVIYAGGNTYYANWVNGRFTISKTSTTVDLKITSPTTEDTATYFCARDVGSSSSGVYFNIWGPGTLVTVSS
VL: AYDMTQTPASVEVAVGGTVTIKCQASQSIGSRLAWYQQKPGQPPKLLIYDASTLASGVSSRFKGSGSGTEFTLTISGVECADAATYYCQQDYSYRHVDNIFGGGTKVEIKR
notes: also called TBA1314aa-F1332m
As to B2, in assay [2], the Kd is at most 7.38 pM and the koff was below 1e-05 s⁻¹. The kon in assay [3] amounted to 402000 M⁻¹ s⁻¹.

B3: TBA0947 (antibody, human IgG1, kappa, V domains shown)
VH: QSVEESGGRLVTPGTPLTLTCTVSGFSLSSYAMNWVRQAPGKGLEWIGYIYTSGTTYHANWARGRFTISKTSTTVDLKMTSLTTEDTATYFCARGTGISDYYYWVMDLWGPGTLVTVSS
VL: AFELTQTPSSVEAAVGGTVTIKCQASQSISTYLAWYQQRPGQPPKLLIYKASTLASGVPSRFKGSGSGTDFTLTISDLECADAATYFCQSYCDGDSVGFGGGTKVEIKR
notes: also called TBA0947gg-F1332m; TBA947
For B3, the binding result in the assay with mouse mature TGF-beta 1 is reported as “no binding (tested: 10 µg/mL)”. Moreover, in assay [1], the Kd was 0.0419 nM, the koff was 1.07e-05 s⁻¹ and the kon worked out at 256000 M⁻¹ s⁻¹. Moreover, in assay [4], the Kd came to 7.65 nM, the koff is 0.00224 s⁻¹ and the kon stood at 292000 M⁻¹ s⁻¹.

B4: TBA865 (antibody, human IgG1, kappa, V domains shown)
VH: QSLEESGGRLVTPGGSLTLTCTVSGIDLSSYAMGWVRQAPGKGLEYIGIISSSGLTDYASWVNGRFTISKTSTTVDLKITSPTTEDTATYFCARIYDLWGPGTLVTVSS
VL: DIVMTQTPASVEAAVGGTLTIKCQASQSISDQLSWYQQKPGQPPKLLIYRASTLESGVPSRFKGSGSGTQFTLTISDLECADAATYYCQSYYYSYSSTYGNTFGGGTKVEIKR
Consider B4, for which, in assay [5], the dissociation constant (Kd) is 0.158 nM, the koff was 5.37e-05 s⁻¹ and the association rate constant (kon) was determined as 341000 M⁻¹ s⁻¹. Further, in assay [6], the Kd was 0.16 nM, the koff is 6.55e-05 s⁻¹ and the association rate constant (kon) was determined as 410000 M⁻¹ s⁻¹. In [7], the binding result is reported as “no binding”. Besides, the binding result in [8] was “no binding”.

B5: TBA873 (antibody, human IgG1, kappa, V domains shown)
VH: QSLEESGGRLVTPGGSLTLTCTVSGIDLSSYAMGWVRQAPGKGLEYIGIISNSGLTDYASWVNGRFTISKTSTTVDLKITSLTTEDTATYFCARIYDLWGPGTLVTVSS
VL: DIVMTQTPASVEAAVGGTVTIKCQASQSISNQLSWYQQKPGQPPKLLIYRASTLASGVSSRFKGSGSGTQFTLTISDLECAAAATYYCQSYYYSVSSTYGNTFGGGTKVEIKR
Regarding B5, in assay [5], the Kd was found to be 0.276 nM, the koff was determined as 5.15e-05 s⁻¹ and the kon was found to be 187000 M⁻¹ s⁻¹. Moreover, in assay [6], the Kd worked out at 0.292 nM, the off-rate (koff) is 6.72e-05 s⁻¹ and the kon stood at 230000 M⁻¹ s⁻¹. For the same molecule, in assay [7], the binding result is listed as “no binding”. In addition, in [8], the binding result is “no binding”.

B6: TBA1300 (antibody, human IgG1, kappa, V domains shown)
VH: QEQLKESGGGLVTPGGTLTLTCTVSGFSLSNYDMSWVRQAPGKGLEWIGAIYTAGTTSYASWAKGRFTISKTSTTVDLKITSPTTEDTATYFCARGGSSFFYYAAHNIWGPGTLVTVSS
VL: AYDMTQTPASVEAAVGGTVTIKCQASQSIGSNLAWYQQKPGQPPKLLIYDASKLPSGVPSRFKGSGSGTEFTLTISDLECDDAATYYCQQYYTTSDVDNTFGGGTKVEIKR
notes: also called TBA1300ff-F1332m
As to B6, in assay [3], the dissociation constant Kd is 0.0389 nM, the koff came out at 2.31e-05 s⁻¹ and the kon is 593000 M⁻¹ s⁻¹.

B7: TBA1172 (antibody, human IgG1, kappa, V domains shown)
VH: QSVEESGGRLVTPGTPLTLTCTVSGFSLSNYAMGWVRQAPGKGLEWIGIISSGGVSYYASWARGRFTISKTSTTVDLKITSPTPEDTGTYFCARGQVPSSDTYYVPFNLWGPGTLVTVSS
VL: DIAMTQTPASVEAAVGGTVTIKCQASQSIGSDLAWYQQKPGQPPKLLIYRASTLASGVPLRFKGSGSGTQFTLTISDLECADAATYYCQTYYFTISSYGAFGGGTKVEIKR
notes: also called TBA1172aa-F1332m; TBS1172
For B7, the binding result with mouse mature TGF-beta 1 is listed as “no binding (tested: 10 µg/mL)”. For the same molecule, in assay [1], the Kd was 0.0919 nM, the off-rate (koff) turned out to be 9.13e-05 s⁻¹ and the kon worked out at 994000 M⁻¹ s⁻¹. In assay [4], the dissociation constant (Kd) was found to be 88 nM, the koff amounted to 0.0229 s⁻¹ and the kon turned out to be 261000 M⁻¹ s⁻¹.

B8: TBA1277 (antibody, human IgG1, kappa, V domains shown)
VH: QSVEESGGRLVTPGTPLTLTCTASGFSLSNYDMSWVRQAPGKGLEWIGNIHTADTTSYARWAKGRFTISKTSTTVDLKITSPTSEDTATYFCARGGSDFFYYEPYNIWGPGTLVTVSS
VL: AYDMTQTPASVEAAVGGTVTVRCQASESIGSRLAWYQQKVGQPPKLLIYDASTLASGVSSRFKGSGSGTEFTLTISDLECDDAATYYCQQYYTSNNVENTFGGGTKVEIKR
notes: also called TBA1277cc-F1332m
Take B8: in [3], the dissociation constant Kd turned out to be 0.0188 nM, the koff was 1.63e-05 s⁻¹ and the kon is 867000 M⁻¹ s⁻¹.
